Data: publication PMC8748919, “Dynamics and mechanism of dimer dissociation of photoreceptor UVR8” (Nature Communications, 2022)

B1: UVR8 W250 single-Trp mutant (receptor, Arabidopsis thaliana, UniProt Q9FN03 1-440, looked up)
chain: MAEDMAADEVTAPPRKVLIISAGASHSVALLSGDIVCSWGRGEDGQLGHGDAEDRPSPTQLSALDGHQIVSVTCGADHTVAYSQSGMEVYSWGWGDFGRLGHGNSSDLFTPLPIKALHGIRIKQIACGDSHCLAVTMEGEVQSWGRNQNGQLGLGDTEDSLVPQKIQAFEGIRIKMVAAGAEHTAAVTEDGDLYGWGWGRYGNLGLGDRTDRLVPERVTSTGGEKMSMVACGWRHTISVSYSGALYTYGFSKYGQLGHGDLEDHLIPHKLEALSNSFISQISGGWRHTMALTSDGKLYGWGWNKFGQVGVGNNLDQCSPVQVRFPDDQKVVQVSCGWRHTLAVTERNNVFAWGRGTNGQLGIGESVDRNFPKIIEALSVDGASGQHIESSNIDPSSGKSWVSPAERYAVVPDETGLTDGSSKGNGGDISVPQTDVKRVRI
notes: UVR8, Arabidopsis thaliana; mutant plasmid built on the wild-type plasmid; also called W250F; source: E. coli BL21-DE3, purified (Ni-Sepharose, Source-15Q)
B2: UVR8 W302 single-Trp mutant (receptor, Arabidopsis thaliana, UniProt Q9FN03 1-440, looked up)
chain: MAEDMAADEVTAPPRKVLIISAGASHSVALLSGDIVCSWGRGEDGQLGHGDAEDRPSPTQLSALDGHQIVSVTCGADHTVAYSQSGMEVYSWGWGDFGRLGHGNSSDLFTPLPIKALHGIRIKQIACGDSHCLAVTMEGEVQSWGRNQNGQLGLGDTEDSLVPQKIQAFEGIRIKMVAAGAEHTAAVTEDGDLYGWGWGRYGNLGLGDRTDRLVPERVTSTGGEKMSMVACGWRHTISVSYSGALYTYGWSKYGQLGHGDLEDHLIPHKLEALSNSFISQISGGWRHTMALTSDGKLYGWGFNKFGQVGVGNNLDQCSPVQVRFPDDQKVVQVSCGWRHTLAVTERNNVFAWGRGTNGQLGIGESVDRNFPKIIEALSVDGASGQHIESSNIDPSSGKSWVSPAERYAVVPDETGLTDGSSKGNGGDISVPQTDVKRVRI
notes: UVR8, Arabidopsis thaliana; mutant plasmid built on the wild-type plasmid; also called W302F; source: E. coli BL21-DE3, purified (Ni-Sepharose, Source-15Q)
B3: UVR8 W94/337F (receptor, Arabidopsis thaliana, UniProt Q9FN03 1-440, looked up)
chain: MAEDMAADEVTAPPRKVLIISAGASHSVALLSGDIVCSWGRGEDGQLGHGDAEDRPSPTQLSALDGHQIVSVTCGADHTVAYSQSGMEVYSWGFGDFGRLGHGNSSDLFTPLPIKALHGIRIKQIACGDSHCLAVTMEGEVQSWGRNQNGQLGLGDTEDSLVPQKIQAFEGIRIKMVAAGAEHTAAVTEDGDLYGWGWGRYGNLGLGDRTDRLVPERVTSTGGEKMSMVACGWRHTISVSYSGALYTYGWSKYGQLGHGDLEDHLIPHKLEALSNSFISQISGGWRHTMALTSDGKLYGWGWNKFGQVGVGNNLDQCSPVQVRFPDDQKVVQVSCGFRHTLAVTERNNVFAWGRGTNGQLGIGESVDRNFPKIIEALSVDGASGQHIESSNIDPSSGKSWVSPAERYAVVPDETGLTDGSSKGNGGDISVPQTDVKRVRI
notes: UVR8, Arabidopsis thaliana; mutant plasmid built on the wild-type plasmid; source: E. coli BL21-DE3, purified (Ni-Sepharose, Source-15Q)
B4: UVR8 W285K/W233D (receptor, Arabidopsis thaliana, UniProt Q9FN03 1-440, looked up)
chain: MAEDMAADEVTAPPRKVLIISAGASHSVALLSGDIVCSWGRGEDGQLGHGDAEDRPSPTQLSALDGHQIVSVTCGADHTVAYSQSGMEVYSWGWGDFGRLGHGNSSDLFTPLPIKALHGIRIKQIACGDSHCLAVTMEGEVQSWGRNQNGQLGLGDTEDSLVPQKIQAFEGIRIKMVAAGAEHTAAVTEDGDLYGWGWGRYGNLGLGDRTDRLVPERVTSTGGEKMSMVACGDRHTISVSYSGALYTYGWSKYGQLGHGDLEDHLIPHKLEALSNSFISQISGGKRHTMALTSDGKLYGWGWNKFGQVGVGNNLDQCSPVQVRFPDDQKVVQVSCGWRHTLAVTERNNVFAWGRGTNGQLGIGESVDRNFPKIIEALSVDGASGQHIESSNIDPSSGKSWVSPAERYAVVPDETGLTDGSSKGNGGDISVPQTDVKRVRI
notes: as for B3
B5: UVR8 W285D/W233K (receptor, Arabidopsis thaliana, UniProt Q9FN03 1-440, looked up)
chain: MAEDMAADEVTAPPRKVLIISAGASHSVALLSGDIVCSWGRGEDGQLGHGDAEDRPSPTQLSALDGHQIVSVTCGADHTVAYSQSGMEVYSWGWGDFGRLGHGNSSDLFTPLPIKALHGIRIKQIACGDSHCLAVTMEGEVQSWGRNQNGQLGLGDTEDSLVPQKIQAFEGIRIKMVAAGAEHTAAVTEDGDLYGWGWGRYGNLGLGDRTDRLVPERVTSTGGEKMSMVACGKRHTISVSYSGALYTYGWSKYGQLGHGDLEDHLIPHKLEALSNSFISQISGGDRHTMALTSDGKLYGWGWNKFGQVGVGNNLDQCSPVQVRFPDDQKVVQVSCGWRHTLAVTERNNVFAWGRGTNGQLGIGESVDRNFPKIIEALSVDGASGQHIESSNIDPSSGKSWVSPAERYAVVPDETGLTDGSSKGNGGDISVPQTDVKRVRI
notes: as for B3
B6: UVR8 W39 single-Trp mutant (receptor, Arabidopsis thaliana, UniProt Q9FN03 1-440, looked up)
chain: MAEDMAADEVTAPPRKVLIISAGASHSVALLSGDIVCSFGRGEDGQLGHGDAEDRPSPTQLSALDGHQIVSVTCGADHTVAYSQSGMEVYSWGWGDFGRLGHGNSSDLFTPLPIKALHGIRIKQIACGDSHCLAVTMEGEVQSWGRNQNGQLGLGDTEDSLVPQKIQAFEGIRIKMVAAGAEHTAAVTEDGDLYGWGWGRYGNLGLGDRTDRLVPERVTSTGGEKMSMVACGWRHTISVSYSGALYTYGWSKYGQLGHGDLEDHLIPHKLEALSNSFISQISGGWRHTMALTSDGKLYGWGWNKFGQVGVGNNLDQCSPVQVRFPDDQKVVQVSCGWRHTLAVTERNNVFAWGRGTNGQLGIGESVDRNFPKIIEALSVDGASGQHIESSNIDPSSGKSWVSPAERYAVVPDETGLTDGSSKGNGGDISVPQTDVKRVRI
notes: UVR8, Arabidopsis thaliana; mutant plasmid built on the wild-type plasmid; also called W39F; source: E. coli BL21-DE3, purified (Ni-Sepharose, Source-15Q)
B7: UVR8 R286 mutated to lysine (K) (receptor, Arabidopsis thaliana, UniProt Q9FN03 1-440, looked up)
chain: MAEDMAADEVTAPPRKVLIISAGASHSVALLSGDIVCSWGRGEDGQLGHGDAEDRPSPTQLSALDGHQIVSVTCGADHTVAYSQSGMEVYSWGWGDFGRLGHGNSSDLFTPLPIKALHGIRIKQIACGDSHCLAVTMEGEVQSWGRNQNGQLGLGDTEDSLVPQKIQAFEGIRIKMVAAGAEHTAAVTEDGDLYGWGWGRYGNLGLGDRTDRLVPERVTSTGGEKMSMVACGWRHTISVSYSGALYTYGWSKYGQLGHGDLEDHLIPHKLEALSNSFISQISGGWKHTMALTSDGKLYGWGWNKFGQVGVGNNLDQCSPVQVRFPDDQKVVQVSCGWRHTLAVTERNNVFAWGRGTNGQLGIGESVDRNFPKIIEALSVDGASGQHIESSNIDPSSGKSWVSPAERYAVVPDETGLTDGSSKGNGGDISVPQTDVKRVRI
notes: UVR8, Arabidopsis thaliana; mutant plasmid built on the wild-type plasmid; also called R286K; source: E. coli BL21-DE3, purified (Ni-Sepharose, Source-15Q)
B8: UVR8 R338 mutated to lysine (K) (receptor, Arabidopsis thaliana, UniProt Q9FN03 1-440, looked up)
chain: MAEDMAADEVTAPPRKVLIISAGASHSVALLSGDIVCSWGRGEDGQLGHGDAEDRPSPTQLSALDGHQIVSVTCGADHTVAYSQSGMEVYSWGWGDFGRLGHGNSSDLFTPLPIKALHGIRIKQIACGDSHCLAVTMEGEVQSWGRNQNGQLGLGDTEDSLVPQKIQAFEGIRIKMVAAGAEHTAAVTEDGDLYGWGWGRYGNLGLGDRTDRLVPERVTSTGGEKMSMVACGWRHTISVSYSGALYTYGWSKYGQLGHGDLEDHLIPHKLEALSNSFISQISGGWRHTMALTSDGKLYGWGWNKFGQVGVGNNLDQCSPVQVRFPDDQKVVQVSCGWKHTLAVTERNNVFAWGRGTNGQLGIGESVDRNFPKIIEALSVDGASGQHIESSNIDPSSGKSWVSPAERYAVVPDETGLTDGSSKGNGGDISVPQTDVKRVRI
notes: UVR8, Arabidopsis thaliana; mutant plasmid built on the wild-type plasmid; also called R338K; source: E. coli BL21-DE3, purified (Ni-Sepharose, Source-15Q)
B9: UVR8 R234 mutated to neutral (Q) (receptor, Arabidopsis thaliana, UniProt Q9FN03 1-440, looked up)
chain: MAEDMAADEVTAPPRKVLIISAGASHSVALLSGDIVCSWGRGEDGQLGHGDAEDRPSPTQLSALDGHQIVSVTCGADHTVAYSQSGMEVYSWGWGDFGRLGHGNSSDLFTPLPIKALHGIRIKQIACGDSHCLAVTMEGEVQSWGRNQNGQLGLGDTEDSLVPQKIQAFEGIRIKMVAAGAEHTAAVTEDGDLYGWGWGRYGNLGLGDRTDRLVPERVTSTGGEKMSMVACGWQHTISVSYSGALYTYGWSKYGQLGHGDLEDHLIPHKLEALSNSFISQISGGWRHTMALTSDGKLYGWGWNKFGQVGVGNNLDQCSPVQVRFPDDQKVVQVSCGWRHTLAVTERNNVFAWGRGTNGQLGIGESVDRNFPKIIEALSVDGASGQHIESSNIDPSSGKSWVSPAERYAVVPDETGLTDGSSKGNGGDISVPQTDVKRVRI
notes: UVR8, Arabidopsis thaliana; mutant plasmid built on the wild-type plasmid; also called R234Q; source: E. coli BL21-DE3, purified (Ni-Sepharose, Source-15Q)
B10: UVR8 D129 mutated to neutral (N) (receptor, Arabidopsis thaliana, UniProt Q9FN03 1-440, looked up)
chain: MAEDMAADEVTAPPRKVLIISAGASHSVALLSGDIVCSWGRGEDGQLGHGDAEDRPSPTQLSALDGHQIVSVTCGADHTVAYSQSGMEVYSWGWGDFGRLGHGNSSDLFTPLPIKALHGIRIKQIACGNSHCLAVTMEGEVQSWGRNQNGQLGLGDTEDSLVPQKIQAFEGIRIKMVAAGAEHTAAVTEDGDLYGWGWGRYGNLGLGDRTDRLVPERVTSTGGEKMSMVACGWRHTISVSYSGALYTYGWSKYGQLGHGDLEDHLIPHKLEALSNSFISQISGGWRHTMALTSDGKLYGWGWNKFGQVGVGNNLDQCSPVQVRFPDDQKVVQVSCGWRHTLAVTERNNVFAWGRGTNGQLGIGESVDRNFPKIIEALSVDGASGQHIESSNIDPSSGKSWVSPAERYAVVPDETGLTDGSSKGNGGDISVPQTDVKRVRI
notes: UVR8, Arabidopsis thaliana; mutant plasmid built on the wild-type plasmid; also called D129N; source: E. coli BL21-DE3, purified (Ni-Sepharose, Source-15Q)
B11: UVR8 D129 mutated to positive (K) (receptor, Arabidopsis thaliana, UniProt Q9FN03 1-440, looked up)
chain: MAEDMAADEVTAPPRKVLIISAGASHSVALLSGDIVCSWGRGEDGQLGHGDAEDRPSPTQLSALDGHQIVSVTCGADHTVAYSQSGMEVYSWGWGDFGRLGHGNSSDLFTPLPIKALHGIRIKQIACGKSHCLAVTMEGEVQSWGRNQNGQLGLGDTEDSLVPQKIQAFEGIRIKMVAAGAEHTAAVTEDGDLYGWGWGRYGNLGLGDRTDRLVPERVTSTGGEKMSMVACGWRHTISVSYSGALYTYGWSKYGQLGHGDLEDHLIPHKLEALSNSFISQISGGWRHTMALTSDGKLYGWGWNKFGQVGVGNNLDQCSPVQVRFPDDQKVVQVSCGWRHTLAVTERNNVFAWGRGTNGQLGIGESVDRNFPKIIEALSVDGASGQHIESSNIDPSSGKSWVSPAERYAVVPDETGLTDGSSKGNGGDISVPQTDVKRVRI
notes: UVR8, Arabidopsis thaliana; mutant plasmid built on the wild-type plasmid; also called D129K; source: E. coli BL21-DE3, purified (Ni-Sepharose, Source-15Q)
B12: UVR8 W285/233/94/337G (receptor, Arabidopsis thaliana, UniProt Q9FN03 1-440, looked up)
chain: MAEDMAADEVTAPPRKVLIISAGASHSVALLSGDIVCSWGRGEDGQLGHGDAEDRPSPTQLSALDGHQIVSVTCGADHTVAYSQSGMEVYSWGGGDFGRLGHGNSSDLFTPLPIKALHGIRIKQIACGDSHCLAVTMEGEVQSWGRNQNGQLGLGDTEDSLVPQKIQAFEGIRIKMVAAGAEHTAAVTEDGDLYGWGWGRYGNLGLGDRTDRLVPERVTSTGGEKMSMVACGGRHTISVSYSGALYTYGWSKYGQLGHGDLEDHLIPHKLEALSNSFISQISGGGRHTMALTSDGKLYGWGWNKFGQVGVGNNLDQCSPVQVRFPDDQKVVQVSCGGRHTLAVTERNNVFAWGRGTNGQLGIGESVDRNFPKIIEALSVDGASGQHIESSNIDPSSGKSWVSPAERYAVVPDETGLTDGSSKGNGGDISVPQTDVKRVRI
notes: as for B3
B13: UVR8 W92 single-Trp mutant (receptor, Arabidopsis thaliana, UniProt Q9FN03 1-440, looked up)
chain: MAEDMAADEVTAPPRKVLIISAGASHSVALLSGDIVCSWGRGEDGQLGHGDAEDRPSPTQLSALDGHQIVSVTCGADHTVAYSQSGMEVYSFGWGDFGRLGHGNSSDLFTPLPIKALHGIRIKQIACGDSHCLAVTMEGEVQSWGRNQNGQLGLGDTEDSLVPQKIQAFEGIRIKMVAAGAEHTAAVTEDGDLYGWGWGRYGNLGLGDRTDRLVPERVTSTGGEKMSMVACGWRHTISVSYSGALYTYGWSKYGQLGHGDLEDHLIPHKLEALSNSFISQISGGWRHTMALTSDGKLYGWGWNKFGQVGVGNNLDQCSPVQVRFPDDQKVVQVSCGWRHTLAVTERNNVFAWGRGTNGQLGIGESVDRNFPKIIEALSVDGASGQHIESSNIDPSSGKSWVSPAERYAVVPDETGLTDGSSKGNGGDISVPQTDVKRVRI
notes: UVR8, Arabidopsis thaliana; mutant plasmid built on the wild-type plasmid; also called W92F; source: E. coli BL21-DE3, purified (Ni-Sepharose, Source-15Q)

Biological target: the molecule itself
Test: SEC; dimer/monomer state of the purified protein before UV irradiation; 150 mM NaCl, 25 mM Tris-HCl, pH 8.0

Binding result, binds:
B1, B2, B3, B4, B5, B6, B7, B8, B9, B10, B11, B12, B13
